From publication doi:10.1101/869925 (bioRxiv, 2019)

How the values were obtained:
[1] = target: the molecule itself; test: native gel or EMSA
[2] = target: the molecule itself; test: fluorescence correlation spectroscopy

B1: endogenous human drebrin-like protein (DBNL) (natural protein)
chain: not shown
stoichiometry N [1]: 2

B2: his-EmGFP-DBNL(1-374) (domain or fragment)
chain: not shown
binding result [2]: binds

B3: his-EmGFP-DBNL(1-256) (domain or fragment)
chain: not shown
binding result [2]: binds
